Laboratory results: patent publication US20160311918A1, “Anti-Ron Monoclonal Antibodies as a Cytotoxic Drug Delivery System for Targeted Cancer Therapy” (TEXAS TECH UNIVERSITY SYSTEM, priority 2013, published 2016)

Legend:
SW620-derived tumors = test: SW620 mouse xenograft tumor model; type: in vivo; conditions: single dose 20 mg/kg
Protocol: (§1) Athymic nude mice (five mice per group) were subcutaneously inoculated with 5×10^6 HCT116, HT29, and SW620 cells followed by injection of 20 mg/kg Zt/g4-DM1 through tail vein. FIG. 4A: Tumor growth from HT29-luc2 or HCT116-luc2 cells was determined by measuring average photon intensity (left panel). SW620-derived tumor growth was monitored by measuring tumor volume (FIG. 4B) (right panel). FIG. 4C: Tumor images with photon emission or caliper measurement at day 16 are presented. The scale from minimal to maximal is set at 300 to 35,000 photons per second. The percentages of inhibition were calculated from the average photon emission (for HT29 and HCT116 cells) or tumor volume (for SW620 cells). […] The percentages of inhibition were calculated by a formula: (average tumor weight from Zt/g4-DM1 treated group/average tumor weight from control mice)×100%;
(§2) Mouse xenograft CRC model and anti-RON ADC treatment: All mice studies were approved by the institutional animal care committee. […] Bioluminescence from individual tumors was measured every four days using Caliper IVIS image system (PerkinElmer). Tumor volumes from SW620-derived tumors were measured according to a formula: V=pi/6×1.58×(length×width)^3/2 (18,33). […]
(§3) The inventors first determined the efficacy of a single dose of Zt/g4-DM1 at 20 mg/kg body weight on tumors derived from HCT116, HT29, and SW620 cells. […]

[1] = target: T1, RON on HCT116, HT29, and SW620 cells (Homo sapiens, UniProt Q04912); test: Flow cytometric binding to CRC cell lines; conditions: all three CRC cell lines, flow cytometry
T1 construct: We selected CRC cell lines LoVo, DLD1, HT29, HCT116, and SW620 expressing variable levels of RON as the cellular model; host or cells: HCT116, HT29, SW620
Protocol: FIG. 2B: Binding of Zt/g4-DM1 to human CRC cell lines: HCT116, HT29, and SW620 cells (1×10^5 cells) were incubated with 5 μg Zt/g4-DM1 or Zt/c1-DM1. Free Zt/g4 and Zt/c1 was used as the control. Fluorescence intensity from individual samples was determined by flow cytometric analysis.
The binding capacity of Zt/g4-DM1 to RON was determined by flow cytometric analysis.

[2] = Acute toxicity in Balb/c mice; type: in vivo, mouse
Protocol: FIGS. 6A to 6C show the toxicity of Zt/g4-DM1 in vivo. Body weight was measured every four days during the period of Zt/g4-DM1 treatment. FIG. 6A: Effect of multiple doses of Zt/g4-DM1 on mouse body weight was determined by administration of Zt/g4-DM1 at 1, 3, 7, 10, 15 mg/kg every four day with a total of 5 injections. Mice were weighed and monitored for a total of 31 days. FIG. 6B: Effect of a single dose of Zt/g4 at 20 mg/kg on mouse body weight was determined using mice bearing HT29, HCT116, or SW620-derived tumors. Body weight was monitored up to 28 days. FIG. 6C: Effect of high doses of Zt/G4-DM1 on mouse body weight was analyzed by tail vein injection at 20, 40 and 60 mg/kg to Balb/c mice. Mice were euthanized at day 21. In all cases, the average body weight of mice before Zt/g4-DM1 injection was 19.8±3.6 grams (5 mice per group) and set as 100%;
In vivo toxicity studies: Acute toxicity with maximum tolerated dose was determined in Balb/C mice (four mice per dose) by a single tail vein injection of Zt/g4-DM1 at 20, 40, and 60 mg/kg body weight. Toxicity associated with different therapeutic doses was evaluated in athymic nude mice bearing HT29 tumor xenograft (five mice per dose). […] Toxicity was assessed by observing mouse behavior, weight loss, and survival.
Toxic effect of Zt/g4-DM1 on mice. Three studies using two different types of mice were performed to study Zt/g4-DM1 on animal behavior and body weight. The first study addressed the impact of multi-doses of Zt/g4-DM1. Athymic nude mice were injected five times with 1, 3, […], 7, 10, 15 mg/kg of Zt/g4-DM1 and monitored every four days for a total period of 31 days. […] The second study observed the effect of a single dose of Zt/g4-DM1 at 20 mg/kg in nude mice bearing tumors derived from HT29, HCT116, and SW620 cells. […] The third study involved a single-dose injection of Zt/g4-DM1 at 20, 40, and 60 mg/kg in Balb/c mice monitored for 24 days (FIG. 6C). […] Also, a moderate reduction of about 6% body weight was observed within the first four days after 60 mg/kg Zt/g4-DM1 injection. Although the average body weight from this group of mice slowly recovered during the observation period, the overall average remained lower than that of control mice with a 19% difference compared to that of control mice at day 24. Thus, Zt/g4-DM1 at the multiple-dose regimen appeared to be well tolerated.

[3] = system: three CRC cell lines (HCT116, HT29, SW620); type: cell-based, human; parameters: cell death: dose or concentration left out as unconfirmed
Protocol: Cell viability was determined by the MTS assay. […] Morphological changes were observed under the Olympus BK-41 inverted microscope and photographed. […] FIG. 3D: Cell death percentages were determined by the trypan blue exclusion method.
Cell viability and death assays: Cell viability 72 h after Zt/g4-DM1 treatment was determined by the MTT assay (22). Viable or dead cells were determined by the trypan blue exclusion assay. A total of 900 cells were counted from three individual wells to reach the percentages of dead cells.

[4] = system: HCT116-luc2 xenograft tumor; test: HCT116-luc2 mouse xenograft tumor model; type: in vivo; conditions: single dose 20 mg/kg
Protocol: as §1, §2, §3

B1: Zt/g4-DM1: anti-RON mouse mAb Zt/g4 conjugated to maytansinoid DM1 via non-reducible thioether linkage (SMCC), DAR about 4:1 (conjugate)
VH: EVQLQQSGAELVKPGASVKLSCTTSGFNIIDTYIHWVNQKPDQGLEWIGRIDPADGNRKSDPKFQVKATITVDTSSNTAYLQLSSLTSGDTAVYYCARGYGNLNAMDSWGQGTSVTVSS
VL: DIQMNQSPSSLSASLGDTITITCHASQNINVWLNWYQQKPGNIPKLLIYKASNLHTGVPSRFSGSGSGTGFTLTISSLQPEDIATYYCQQGQSYPLTFGGGTKLEIK
In the case of B1, the “inhibition in tumor volume” value (SW620-derived tumors; day 16) is reported as 82%, the “inhibition rate by average tumor weight” value (SW620-derived tumors; day 28) is reported as 61.9% and the “binding intensity compared with free Zt/g4” value [1] is reported as “No difference in binding intensity”. For the same molecule, the “average reduction in mouse body weight” value ([2]; 60 mg/kg) was 12%, the “toxic effect on mouse behavior or body weight” value ([2]; doses up to 40 mg/kg) was “no toxic effect on mouse behavior or body weight” and the distress ([2]; single dose 60 mg/kg, Balb/c mice) was “Moderate distress”. For the same molecule, the “body weight difference compared to control mice” value ([2]; single dose 60 mg/kg, day 24) was 19%, the “reduction of body weight” value ([2]; single dose 60 mg/kg, within the first four days) was “about 6%” and the IC50 cell death [3] was 5 to 7 µg/mL. The cell death ([3]; 72 h) was “More than 50%”, the “inhibition by average bioluminescence intensity” value ([4]; day 16) was “More than 95%” and the “inhibition rate by average tumor weight” value ([4]; day 28) was 58.0%.
